Results published in US20070224188A1.

molecular target: biotin-labeled soluble FcRn; assay: FcRn ELISA pH 6.0

| Substance | FcRn pH6.0 (% of wild type) | FcRn6.0 (% of wild type) |
| --- | --- | --- |
| anti-CD20 IgG1 K317T (antibody) | 49 | – |
| anti-CD20 IgG1 S254D (antibody) | 7 | – |
| anti-CD20 IgG1 E382Q (antibody) | 162 | – |
| anti-CD20 IgG1 E283S (antibody) | 143 | – |
| anti-CD20 IgG1 330K332D (antibody) | – | 88 |
| anti-CD20 IgG1 Y436L (antibody) | 172 | – |
| anti-CD20 IgG1 K317P (antibody) | 145 | – |
| anti-CD20 IgG1 286F376V (antibody) | – | 349 |
| anti-CD20 IgG1 D265S (antibody) | 66 | – |
| anti-CD20 IgG1 E430D (antibody) | 44 | – |
| anti-CD20 IgG1 Q311A (antibody) | 139 | – |
| anti-CD20 IgG1 Q311E (antibody) | 46 | – |
| anti-CD20 IgG1 I332S (antibody) | 263 | – |
| anti-CD20 IgG1 D376P (antibody) | 203 | – |
| anti-CD20 IgG1 Q311P (antibody) | 89 | – |
| anti-CD20 IgG1 N434H (antibody) | 855 | – |
| anti-CD20 IgG1 H429A (antibody) | 61 | – |
| anti-CD20 IgG1 K248W (antibody) | 30 | – |
| anti-CD20 IgG1 311I376V (antibody) | – | 414 |
| anti-CD20 IgG1 E382P (antibody) | 122 | – |
| anti-CD20 IgG1 S440M (antibody) | 80 | – |
| anti-CD20 IgG1 T307A (antibody) | 233 | – |
| anti-CD20 IgG1 V279I (antibody) | 83 | – |
| anti-CD20 IgG1 E430L (antibody) | 242 | – |
| anti-CD20 IgG1 E382T (antibody) | 172 | – |
| anti-CD20 IgG1 E380A (antibody) | 152 | – |

| Substance | FcRn pH6.0 (% of wild type) | FcRn6.0 (% of wild type) |
| --- | --- | --- |
| anti-CD20 IgG1 P343V (antibody) | 77 | – |
| anti-CD20 IgG1 D376R (antibody) | 103 | – |
| anti-CD20 IgG1 A339Q (antibody) | 102 | – |
| anti-CD20 IgG1 K248P (antibody) | 34 | – |
| anti-CD20 IgG1 256P430Q (antibody) | – | 150 |
| anti-CD20 IgG1 E430P (antibody) | 86 | – |
| anti-CD20 IgG1 Q311W (antibody) | 215 | – |
| anti-CD20 IgG1 P244L (antibody) | 124 | – |
| anti-CD20 IgG1 E283R (antibody) | 282 | – |
| anti-CD20 IgG1 R292L (antibody) | 68 | – |
| anti-CD20 IgG1 S424H (antibody) | 97 | – |
| anti-CD20 IgG1 R301W (antibody) | 119 | – |
| anti-CD20 IgG1 247L332E376I (antibody) | – | 74 |
| anti-CD20 IgG1 Q438W (antibody) | 164 | – |
| anti-CD20 IgG1 E382D (antibody) | 73 | – |
| anti-CD20 IgG1 S254N (antibody) | 8 | – |
| anti-CD20 IgG1 E430A (antibody) | 179 | – |
| anti-CD20 IgG1 I332D (antibody) | 78 | – |
| anti-CD20 IgG1 P238H (antibody) | 72 | – |
| anti-CD20 IgG1 T256L (antibody) | 78 | – |
| anti-CD20 IgG1 G341F (antibody) | 52 | – |
| anti-CD20 IgG1 S375R (antibody) | 595 | – |
| anti-CD20 IgG1 V379S (antibody) | 86 | – |
| anti-CD20 IgG1 E382F (antibody) | 222 | – |
| anti-CD20 IgG1 E382K (antibody) | 153 | – |
| anti-CD20 IgG1 V279K (antibody) | 79 | – |

| Substance | FcRn pH6.0 (% of wild type) | FcRn6.0 (% of wild type) |
| --- | --- | --- |
| anti-CD20 IgG1 S254I (antibody) | 25 | – |
| anti-CD20 IgG1 I332L (antibody) | 127 | – |
| anti-CD20 IgG1 257I311I434H (antibody) | – | 553 |
| anti-CD20 IgG1 P343R (antibody) | 198 | – |
| anti-CD20 IgG1 283R307E (antibody) | – | 400 |
| anti-CD20 IgG1 N434I (antibody) | 6 | – |
| anti-CD20 IgG1 F423N (antibody) | 158 | – |
| anti-CD20 IgG1 E382W (antibody) | 172 | – |
| anti-CD20 IgG1 E258D (antibody) | 361 | – |
| anti-CD20 IgG1 286F307E (antibody) | – | 431 |
| anti-CD20 IgG1 S254E (antibody) | 6 | – |
| anti-CD20 IgG1 E382N (antibody) | 137 | – |
| anti-CD20 IgG1 V262L (antibody) | 525 | – |
| anti-CD20 IgG1 256P314Y440Y (antibody) | – | 79 |
| anti-CD20 IgG1 G341D (antibody) | 52 | – |
| anti-CD20 IgG1 330K332E (antibody) | – | 94 |
| anti-CD20 IgG1 D249E (antibody) | 78 | – |
| anti-CD20 IgG1 P247Y (antibody) | 7 | – |
| anti-CD20 IgG1 K439E (antibody) | 94 | – |
| anti-CD20 IgG1 Y373F (antibody) | 110 | – |
| anti-CD20 IgG1 307E376V (antibody) | – | 480 |
| anti-CD20 IgG1 K439Q (antibody) | 74 | – |
| anti-CD20 IgG1 S442K (antibody) | 138 | – |
| anti-CD20 IgG1 Q311N (antibody) | 54 | – |
| anti-CD20 IgG1 E283A (antibody) | 126 | – |
| anti-CD20 IgG1 V279N (antibody) | 204 | – |

| Substance | FcRn pH6.0 (% of wild type) | FcRn6.0 (% of wild type) |
| --- | --- | --- |
| anti-CD20 IgG1 V279M (antibody) | 122 | – |
| anti-CD20 IgG1 E380S (antibody) | 230 | – |
| anti-CD20 IgG1 247L251F376I (antibody) | – | 61 |
| anti-CD20 IgG1 A339T (antibody) | 138 | – |
| anti-CD20 IgG1 E430K (antibody) | 131 | – |
| anti-CD20 IgG1 D270N (antibody) | 94 | – |
| anti-CD20 IgG1 G316F (antibody) | 34 | – |
| anti-CD20 IgG1 Q311K (antibody) | 165 | – |
| anti-CD20 IgG1 A327T (antibody) | 54 | – |
| anti-CD20 IgG1 R292I (antibody) | 56 | – |
| anti-CD20 IgG1 H268K (antibody) | 86 | – |
| anti-CD20 IgG1 R255K (antibody) | 41 | – |
| anti-CD20 IgG1 E430V (antibody) | 281 | – |
| anti-CD20 IgG1 A339M (antibody) | 111 | – |
| anti-CD20 IgG1 E272R (antibody) | 351 | – |
| anti-CD20 IgG1 A339W (antibody) | 156 | – |
| anti-CD20 IgG1 R292G (antibody) | 60 | – |
| anti-CD20 IgG1 G341S (antibody) | 55 | – |
| anti-CD20 IgG1 E283L (antibody) | 126 | – |
| anti-CD20 IgG1 E430G (antibody) | 131 | – |
| anti-CD20 IgG1 257I430Q (antibody) | – | 304 |
| anti-CD20 IgG1 I332T (antibody) | 100 | – |
| anti-CD20 IgG1 D280K (antibody) | 120 | – |
| anti-CD20 IgG1 E380T (antibody) | 172 | – |
| anti-CD20 IgG1 I332K (antibody) | 146 | – |
| anti-CD20 IgG1 G341I (antibody) | 36 | – |

| Substance | FcRn pH6.0 (% of wild type) | FcRn6.0 (% of wild type) |
| --- | --- | --- |
| anti-CD20 IgG1 P245R (antibody) | 188 | – |
| anti-CD20 IgG1 E283P (antibody) | 136 | – |
| anti-CD20 IgG1 L235Q (antibody) | 81 | – |
| anti-CD20 IgG1 256P440Y (antibody) | – | 122 |
| anti-CD20 IgG1 I332E (antibody) | 86 | – |
| anti-CD20 IgG1 P343K (antibody) | 232 | – |
| anti-CD20 IgG1 D376I (antibody) | 144 | – |
| anti-CD20 IgG1 A378N (antibody) | 180 | – |
| anti-CD20 IgG1 S267G (antibody) | 86 | – |
| anti-CD20 IgG1 E318P (antibody) | 75 | – |
| anti-CD20 IgG1 Q311V (antibody) | 558 | – |
| anti-CD20 IgG1 256P332E440Y (antibody) | – | 117 |
| anti-CD20 IgG1 E283Q (antibody) | 117 | – |
| anti-CD20 IgG1 P257A (antibody) | 319 | – |
| anti-CD20 IgG1 L251H (antibody) | 46 | – |
| anti-CD20 IgG1 N434W (antibody) | 1340 | – |
| anti-CD20 IgG1 N315F (antibody) | 51 | – |
| anti-CD20 IgG1 E269Q (antibody) | 98 | – |
| anti-CD20 IgG1 S440I (antibody) | 96 | – |
| anti-CD20 IgG1 I332Q (antibody) | 98 | – |
| anti-CD20 IgG1 D376S (antibody) | 134 | – |
| anti-CD20 IgG1 N315K (antibody) | 88 | – |
| anti-CD20 IgG1 330R332E (antibody) | – | 94 |
